Earlier results in PMC8512968.

Target: band 3 cytoplasmic domain (Homo sapiens) (UniProt P02730)
Experiment: sedimentation equilibrium AUC

Kd: 2800 nM
Substance: band 3 cytoplasmic domain (from UniProt P02730)
